Article PMC4428629, “The Structure of an NDR/LATS Kinase–Mob Complex Reveals a Novel Kinase–Coactivator System and Substrate Docking Mechanism” (PLoS Biology, 2015)
Non-standard residues stand in square brackets, D forms with d. Residues, ends and D or L forms follow the SMILES beside them. No end group written: not given here. carboxyfluorescein = carboxyfluorescein label; pT = C[C@@H](OP(=O)(O)O)[C@H](N)C(=O)O

What was measured:
[1] = tested on: Cbk1^251–756–Mob2 (T743E); assay: Peptide kinase assay, WT Cbk1 (T743E); type: biochemical, Saccharomyces cerevisiae; settings: for 32P incorporation into peptide, Average: Average of Rep 1-4, 100 μM peptide, 50 nM kinase, 40 μM ATP, 1 h
Protocol: (§1) For peptide kinase assays, reactions were performed in the presence of 50 nM Cbk1^251–756–Mob2, 40 μM ATP, 2 mM DTT, 5 mM MnCl2, 2 μCi γ-^32P-ATP, and 100 μM Docktide ([…]) or AKAPtide ([…]). Reactions were initiated by the addition of ATP. Samples were quenched after 1 h by the addition of a 5-μl sample to P81 paper (Whatman) and subsequent submersion in 75 mM phosphoric acid to remove background γ-^32P-ATP. After drying, signal was determined by Čerenkov counting in an LS 6500 scintillation counter (Beckman). Counts per minute was efficiency corrected and converted to femtomoles ^32P followed by conversion to total ATP (labeled and unlabeled). Significance was determined by an unpaired two-tailed Student’s t-test.
(§2) Supplementary file pbio.1002146.s003.xlsx: S3 Data Enzymological characterization of the effects of Cbk1 docking. Assay data from experiments that used γ-^32P-ATP in protein kinase reactions with synthetic substrate peptides from Ssd1 that either contained both the core Cbk1 docking motif and a Cbk1 phosphorylation consensus motif (Docktide) or contained a core Cbk1 docking motif mutated to abrogate binding to the kinase and a Cbk1 consensus motif (AKAPtide). These kinase assays were performed either with Cbk1(T743E) or with Cbk1(Y687A/T743E). The latter construct carries a mutation that eliminates docking motif association with the kinase. (XLSX) Click here for additional data file.

[2] = tested on: Cbk1(Y687A/T743E); assay: Peptide kinase assay, Cbk1(Y687A/T743E); type: biochemical, Saccharomyces cerevisiae; settings: for 32P incorporation into peptide, Average: Average of Rep 1-4, 100 μM peptide, 50 nM kinase, 40 μM ATP, 1 h
Protocol: as §1, §2

[3] = biological target: T1, Cbk1^Δ730–756–Mob2 (Saccharomyces cerevisiae, UniProt P43563+P53894); assay: biochemical; type: binding
T1 construct: His6-Cbk1^251–756 was co-expressed with GST-Mob2 (full length or 45–287); His6 (N); made in house
T1 sequence (P43563 whole entry, stated change not applied, one chain of several): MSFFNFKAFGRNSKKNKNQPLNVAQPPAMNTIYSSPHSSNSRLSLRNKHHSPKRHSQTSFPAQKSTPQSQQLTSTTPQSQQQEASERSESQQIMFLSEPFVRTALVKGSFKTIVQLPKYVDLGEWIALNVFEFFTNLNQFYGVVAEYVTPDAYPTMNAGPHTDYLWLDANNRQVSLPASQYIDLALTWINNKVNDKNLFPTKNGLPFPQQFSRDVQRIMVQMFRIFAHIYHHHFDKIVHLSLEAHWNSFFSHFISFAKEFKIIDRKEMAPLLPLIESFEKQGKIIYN
Source text: ND, not determined. […] (PDF) Click here for additional data file.

[4] = biological target: pepAce2, carboxyfluorescein-labelled (S. cerevisiae); assay: fluorescence polarisation; direct titration: protein titrated into 20 nM carboxyfluorescein-labelled peptide; 20 mM Tris (pH 8.0), 100 mM NaCl, 0.05% Brij35P, 2 mM DTT; quadratic binding equation
[5] = biological target: Cbk1(W444A)–Mob2 complex (S. cerevisiae, UniProt P53894 251-756; P43563 1-287, W444A); assay: FP
Cbk1(W444A)–Mob2 complex, sequence (P53894 251-756 W444A, chain 1 of 2, one chain of several): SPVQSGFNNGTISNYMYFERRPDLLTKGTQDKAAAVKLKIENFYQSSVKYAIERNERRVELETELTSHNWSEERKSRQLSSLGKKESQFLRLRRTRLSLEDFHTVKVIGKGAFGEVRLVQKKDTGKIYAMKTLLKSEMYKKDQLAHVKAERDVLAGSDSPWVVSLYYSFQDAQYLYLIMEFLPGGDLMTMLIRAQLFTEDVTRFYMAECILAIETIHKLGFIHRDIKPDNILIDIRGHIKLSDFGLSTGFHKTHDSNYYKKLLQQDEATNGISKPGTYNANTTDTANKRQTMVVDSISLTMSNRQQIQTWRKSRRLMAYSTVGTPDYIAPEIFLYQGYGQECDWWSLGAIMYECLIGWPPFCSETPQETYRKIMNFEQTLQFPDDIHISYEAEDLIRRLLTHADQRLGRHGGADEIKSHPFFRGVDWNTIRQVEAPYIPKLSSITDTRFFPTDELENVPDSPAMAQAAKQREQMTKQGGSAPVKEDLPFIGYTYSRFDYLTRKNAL

[6] = biological target: Cbk1(Y687A)–Mob2 complex (S. cerevisiae, UniProt P53894 251-756; P43563 1-287, Y687A); assay: FP
Cbk1(Y687A)–Mob2 complex, sequence (P53894 251-756 Y687A, chain 1 of 2, one chain of several): as the sequence (P53894 251-756 W444A, chain 1 of 2, one chain of several) above, with A194W, Y437A counted along it

[7] = biological target: T2, Cbk1^251–756–Mob2 complex (S. cerevisiae, UniProt P53894 251-756; P43563 1-287); assay: FP
T2 chain 1: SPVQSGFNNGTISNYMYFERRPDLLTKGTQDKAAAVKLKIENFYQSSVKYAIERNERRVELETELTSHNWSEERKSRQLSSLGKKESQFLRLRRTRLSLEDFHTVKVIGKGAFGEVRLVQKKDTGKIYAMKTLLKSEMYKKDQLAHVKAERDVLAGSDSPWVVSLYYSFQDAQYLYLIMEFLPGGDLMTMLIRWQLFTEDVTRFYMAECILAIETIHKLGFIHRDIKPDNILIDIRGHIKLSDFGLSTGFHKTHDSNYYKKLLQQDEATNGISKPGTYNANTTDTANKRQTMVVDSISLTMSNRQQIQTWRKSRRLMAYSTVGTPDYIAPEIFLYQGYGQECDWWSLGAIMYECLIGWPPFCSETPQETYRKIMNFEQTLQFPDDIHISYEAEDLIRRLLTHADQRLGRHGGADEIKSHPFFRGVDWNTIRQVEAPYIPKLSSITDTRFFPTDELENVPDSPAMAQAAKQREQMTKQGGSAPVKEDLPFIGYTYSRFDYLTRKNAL
T2 chain 2: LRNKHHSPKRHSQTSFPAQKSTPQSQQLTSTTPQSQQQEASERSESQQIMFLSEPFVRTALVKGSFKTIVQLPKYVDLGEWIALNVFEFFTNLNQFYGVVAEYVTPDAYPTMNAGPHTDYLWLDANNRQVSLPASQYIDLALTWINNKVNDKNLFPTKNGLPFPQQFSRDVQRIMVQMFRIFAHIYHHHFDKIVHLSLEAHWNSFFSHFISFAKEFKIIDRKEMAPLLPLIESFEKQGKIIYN

[8] = biological target: Cbk1(F447A)–Mob2 complex (S. cerevisiae, UniProt P53894 251-756; P43563 1-287, F447A); assay: FP
Cbk1(F447A)–Mob2 complex, sequence (P53894 251-756 F447A, chain 1 of 2, one chain of several): as the sequence (P53894 251-756 W444A, chain 1 of 2, one chain of several) above, with A194W, F197A counted along it

[9] = biological target: Cbk1(F699A)–Mob2 complex (S. cerevisiae, UniProt P53894 251-756; P43563 1-287, F699A); assay: FP
[10] = biological target: T3, Cbk1(D475A), residues 251-756, intact hydrophobic motif (S. cerevisiae, UniProt P53894 251-756, D475A); assay: crystal structure; Cbk1(D475A) or Cbk1(D475A/T743E) with Mob2, tags cleaved, 4–6 mg/ml, 2 mM AMPPNP, 2 mM MgCl2, 2 mM TCEP; microbatch under oil at 23°C; three crystal forms; settings: both partners purified
T3 construct: crystallised with AMPPNP; also called Cbk1(HM-T); source: bacterially expressed with Mob2, purified (Ni-NTA, glutathione Sepharose, TEV cleavage, Resource S); not shown: His6, N-terminal, cleaved
T3 sequence (looked up): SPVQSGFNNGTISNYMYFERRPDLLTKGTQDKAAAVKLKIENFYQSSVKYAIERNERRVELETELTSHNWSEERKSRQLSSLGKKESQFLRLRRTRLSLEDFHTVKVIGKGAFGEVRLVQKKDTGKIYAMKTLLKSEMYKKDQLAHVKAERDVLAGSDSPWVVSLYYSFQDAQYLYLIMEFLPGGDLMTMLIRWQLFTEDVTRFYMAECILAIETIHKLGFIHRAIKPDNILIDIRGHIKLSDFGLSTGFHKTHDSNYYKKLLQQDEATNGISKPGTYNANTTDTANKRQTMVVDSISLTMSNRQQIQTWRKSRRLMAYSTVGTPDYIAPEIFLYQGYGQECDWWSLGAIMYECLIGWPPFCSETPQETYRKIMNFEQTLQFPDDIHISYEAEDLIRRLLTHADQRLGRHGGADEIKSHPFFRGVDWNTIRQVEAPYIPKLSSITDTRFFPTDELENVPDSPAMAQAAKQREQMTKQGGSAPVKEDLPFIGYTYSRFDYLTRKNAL

[11] = biological target: T4, Cbk1(D475A/T743E), residues 251-756 (S. cerevisiae, UniProt P53894 251-756, D475A | T743E); assay: as above; settings: both partners purified
T4 construct: two crystal forms (A, 4.5 Å; B, 3.6 Å); also called Cbk1(HM-E); Cbk1(T743E); source: bacterially expressed with Mob2, purified (Ni-NTA, glutathione Sepharose, TEV cleavage, Resource S); not shown: His6, N-terminal, cleaved
T4 sequence (looked up): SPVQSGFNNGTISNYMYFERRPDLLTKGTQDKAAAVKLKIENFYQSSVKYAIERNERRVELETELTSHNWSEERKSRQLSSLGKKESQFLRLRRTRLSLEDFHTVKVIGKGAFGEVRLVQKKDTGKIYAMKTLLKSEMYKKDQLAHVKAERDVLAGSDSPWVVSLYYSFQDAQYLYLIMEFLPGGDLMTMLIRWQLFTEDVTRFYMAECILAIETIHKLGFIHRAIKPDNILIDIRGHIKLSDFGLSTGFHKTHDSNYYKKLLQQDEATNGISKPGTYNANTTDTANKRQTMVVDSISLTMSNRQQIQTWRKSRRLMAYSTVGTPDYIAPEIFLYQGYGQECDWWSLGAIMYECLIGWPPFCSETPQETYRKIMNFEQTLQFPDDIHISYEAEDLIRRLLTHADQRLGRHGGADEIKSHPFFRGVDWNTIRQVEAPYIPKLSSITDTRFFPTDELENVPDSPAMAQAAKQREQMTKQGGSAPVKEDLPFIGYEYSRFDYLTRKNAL

[12] = biological target: T5, Cbk1^352–756 kinase domain (S. cerevisiae, UniProt P53894 352-756); assay: pull-down; pull-down of Cbk1^352–756 by bead-bound Ace2 or Ssd1 docking motifs in competition with unbound Ace2^270–290; settings: both partners purified
T5 construct: source: bacterially expressed, purified (Ni-NTA, glutathione Sepharose); not shown: His6, C-terminal, kept
T5 sequence (looked up): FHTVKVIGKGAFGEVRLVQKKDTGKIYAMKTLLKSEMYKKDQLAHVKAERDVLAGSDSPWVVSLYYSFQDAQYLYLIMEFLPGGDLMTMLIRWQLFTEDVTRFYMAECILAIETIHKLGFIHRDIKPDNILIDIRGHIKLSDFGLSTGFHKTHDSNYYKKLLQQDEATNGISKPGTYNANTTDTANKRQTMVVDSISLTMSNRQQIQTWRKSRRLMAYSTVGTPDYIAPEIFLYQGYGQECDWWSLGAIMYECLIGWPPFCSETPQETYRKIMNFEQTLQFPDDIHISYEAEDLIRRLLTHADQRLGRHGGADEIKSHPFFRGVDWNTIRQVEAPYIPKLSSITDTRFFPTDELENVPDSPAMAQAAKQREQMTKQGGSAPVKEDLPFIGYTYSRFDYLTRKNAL

[13] = biological target: T6, Cbk1^352–692 kinase domain (S. cerevisiae, UniProt P53894 352-692); assay: pull-down; MBP fusions on amylose beads incubated with 1 μM purified Cbk1 on ice for 15 min, washed 3× with PBS; GelCode Blue or immunoblot (His or pS570 antibodies); settings: both partners purified
T6 construct: also called catalytic domain alone; source: bacterially expressed, purified (Ni-NTA, glutathione Sepharose); not shown: His6, C-terminal, kept
T6 sequence (looked up): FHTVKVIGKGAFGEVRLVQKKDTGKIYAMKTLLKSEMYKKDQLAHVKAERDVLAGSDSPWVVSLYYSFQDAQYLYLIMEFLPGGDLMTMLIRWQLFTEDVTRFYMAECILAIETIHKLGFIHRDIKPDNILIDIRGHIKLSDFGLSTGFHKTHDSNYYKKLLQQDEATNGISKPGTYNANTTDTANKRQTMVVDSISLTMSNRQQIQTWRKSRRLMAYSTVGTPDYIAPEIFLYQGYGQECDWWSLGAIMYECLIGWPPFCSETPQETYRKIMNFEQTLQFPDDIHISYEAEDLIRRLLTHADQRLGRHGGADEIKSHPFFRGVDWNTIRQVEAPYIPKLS

## CDFKFPPPPNAHGGHRRATSN [Docktide, Ssd1 (210–229)-based peptide with docking motif FKFP and Cbk1 consensus site]
[1]
  32P incorporation into peptide, Average: 76.8 fmol
[1]; relative to peptide with mutant docking motif (AKAPtide)
  effect of WT docking motif on phosphorylation: enhances phosphorylation by WT Cbk1
[2]
  32P incorporation into peptide, Average: 45.9 fmol
[2]; Cbk1(Y687A)
  effect of WT docking motif on phosphorylation: loses this enhancement

## CC[C@H](C)[C@H](N)C(=O)NCC(=O)N[C@@H](Cc1ccc(O)cc1)C(=O)N[C@H](C(=O)N[C@@H](Cc1ccc(O)cc1)C(=O)N[C@@H](CO)C(=O)N[C@@H](CCCNC(=N)N)C(=O)N[C@@H](Cc1ccccc1)C(=O)N[C@@H](CC(=O)O)C(=O)N[C@@H](Cc1ccc(O)cc1)C(=O)O)[C@@H](C)O [pepHM] (H-IGYTYSRFDY-OH)
[3]
  Kd: ~33 µM

## CDAKAPPPPNAHGGHRRATSN [AKAPtide, Ssd1-based peptide with mutated docking motif AKAP and Cbk1 consensus site]
[1]
  32P incorporation into peptide, Average: 57.4 fmol
[2]
  32P incorporation into peptide, Average: 45.5 fmol

## Cbk1^251–756–Mob2 complex (from UniProt P53894 251-756; P43563 1-287)
[4]
  Kd: 6 µM

B1: pepHM-P, carboxyfluorescein-labelled (peptide)
peptide: IGY[pT]YSRFDY-carboxyfluorescein
[5]
  Kd: 24 µM
[6]
  Kd: 22 µM
[7]
  Kd: 20 µM
[8]
  Kd: 33 µM
[9]
  Kd: 28 µM

B2: pepSSD1, carboxyfluorescein-labelled (peptide)
peptide: carboxyfluorescein-TTEQSDFKFP
[5]
  Kd: 58 µM
[6]
  Kd: 36 µM
[7]
  Kd: 6 µM
[9]
  Kd: 4.9 µM

B3: Mob2, residues 45-287 (natural protein, S. cerevisiae, UniProt P43563 45-287, looked up)
chain: LRNKHHSPKRHSQTSFPAQKSTPQSQQLTSTTPQSQQQEASERSESQQIMFLSEPFVRTALVKGSFKTIVQLPKYVDLGEWIALNVFEFFTNLNQFYGVVAEYVTPDAYPTMNAGPHTDYLWLDANNRQVSLPASQYIDLALTWINNKVNDKNLFPTKNGLPFPQQFSRDVQRIMVQMFRIFAHIYHHHFDKIVHLSLEAHWNSFFSHFISFAKEFKIIDRKEMAPLLPLIESFEKQGKIIYN
notes: the crystallised construct begins at 45 (N-terminal Mob2 region 45-110 not seen in the density); source: bacterially expressed with Cbk1, purified (Ni-NTA, glutathione Sepharose, TEV cleavage, Resource S); not shown: GST, N-terminal, cleaved
[10]
  binding result: binds
[11]
  binding result: binds

B4: Ace2^270–290 docking motif, MBP fusion (domain or fragment, S. cerevisiae, UniProt P21192 270-290, looked up)
chain: NAIIVTTNSANGGYQFPPPTL
notes: Ace2 of budding yeast, residues 270-290; also called WT Ace2 (two glycine residues)
[12]
  binding result: binds
[13]
  binding result: binds

B5: unbound Ace2^270–290 (domain or fragment, S. cerevisiae, UniProt P21192 270-290, looked up)
chain: NAIIVTTNSANGGYQFPPPTL
[12]
  binding result: binds
